Assay results taken from patent US12269859B2, “Synthetic immune receptors and methods of use thereof” (Angeles Therapeutics, Inc., priority 2016, dated 2025).

System: target antigen-expressing cell line
Assay: Jurkat NFAT-GFP assay, coculture with target cell lines expressing the respective target antigen (summary Table 10A)
Assay type: cell-based, human
Set-up: key: The signs +/−, +, 2+ etc. after the name of the cell lines indicate the relative degree of positivity on the Jurkat-NFAT-GFP assay as measured by the % GFP positive cells; +: relative degree of positivity on the Jurkat-NFAT-GFP assay as measured by the % GFP positive cells; 2+: relative degree of positivity on the Jurkat-NFAT-GFP assay as measured by the % GFP positive cells
Conditions: relative % GFP positive cells; for NFAT-GFP ASSAY Positive Cell lines: RAJI: SIR-expressing Jurkat-NFAT-GFP cells cocultured with RAJI; for NFAT-GFP ASSAY Positive Cell lines: NALM6: SIR-expressing Jurkat-NFAT-GFP cells cocultured with NALM6
How it was run: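 Read-out: % GFP+ cells by FACS. SIR-transduced, puromycin-selected Jurkat NFAT-GFP (IL-2 promoter reporter) cocultured ~4–18 h with target line, E:T ~1:2; parental cells as control; graded +/−, +, 2+ relative to parental.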

Molecule	NFAT-GFP ASSAY Positive Cell lines: L363 (SIR-expressing Jurkat-NFAT-GFP cells cocultured with L363)	NFAT-GFP ASSAY Positive Cell lines: RAJI	NFAT-GFP ASSAY Positive Cell lines: U266 (SIR-expressing Jurkat-NFAT-GFP cells cocultured with U266)	NFAT-GFP ASSAY Positive Cell lines: NALM6
040716-I04 (protein, Synthetic polynucleotide encoding a SIR) MALPVTALLLPLALLLHAARPDEIVLTQSPATLSLSPGERATLSCSASSSVSYMHWYQQKPGQAPRLLIYDTSKLASGIPARFSGSGSGTDFTLTISSLEPEDVAVYYCFQGSVYPFTFGQGTKLEIKRGGGGSGGGGSGGGGSQVQLQESGPGLVKPSQTLSLTCTVSGGSISTSGMGVGWIRQHPGKGLEWIGHIWWDDDKRYNPALKSRVTISVDTSKNQFSLKLSSVTAADTAVYYCARMELWSYYFDYWGQGTLVTVSSLEGKPIPNPLLGLDSTGSGEDLKNVFPPEVAVFEPSKAEIAHTQKATLVCLATGFYPDHVELSWWVNGKEVHSGVCTDPQPLKEQPALNDSRYCLSSRLRVSATFWQNPRNHFRCQVQFYGLSENDEWTQDRAKPVTQIVSAEAWGRADCGITSASYHQGVLSATILYEILLGKATLYAVLVSALVLMAMVKRKDSRGRAKRSGSGATNFSLLKQAGDVEENPGPTSTMALPVTALLLPLALLLHAARPDIVMTQTPLTLSVTIGQPASISCKSSQSLLDSDGKTYLNWLLQRPGQSPERLIYLVSKLDSGVPDRFTGSGSGTDFTLKISRVEAEDLGVYCCWQGTHFPYTFGGGTKVEIKGGGGGSGGGGSGGGGSQVQLQQPGAELVRPGASVKLSCKASGYTFTSYWMNWVKQRPGQGLEWIGMIDPSDSETHYNHIFKDKATLTVDKSSSTAYLQLSSLTSEDSAVYYCARNLYLWGQGTSVTVSSTREQKLISEEDGSGIQNPDPAVYQLRDSKSSDKSVCLFTDFDSQTNVSQSKDSDVYITDKCVLDMRSMDFKSNSAVAWSNKSDFACANAFNNSIIPEDTFFPSSDVPCDVKLVEKSFETDTNLNFQNLSVIGFRILLLKVAGFNLLMTLRLWSSRAKRSGSGVKQTLNFDLLKLAGDVESNPGPSRGHMTEYKPTVRLATRDDVPRAVRTLAAAFADYPATRHTVDPDRHIERVTELQELFLTRVGLDIGKVWVADDGAAVAVWTTPESVEAGAVFAEIGPRMAELSGSRLAAQQQMEGLLAPHRPKEPAWFLATVGVSPDHQGKGLGSAVVLPGVEAAERAGVPAFLETSAPRNLPFYERLGFTVTADVEVPEGPRTWCMTRKPGA	(+/−), L363 (+/−)	RAJI (+/−), U266	(+/−), L363 (+/−)	–
030217-K05 (protein) MALPVTALLLPLALLLHAARPDEIVLTQSPATLSLSPGERATLSCSASSSVSYMHWYQQKPGQAPRLLIYDTSKLASGIPARFSGSGSGTDFTLTISSLEPEDVAVYYCFQGSVYPFTFGQGTKLEIKRGGGGSGGGGSGGGGSQVQLQESGPGLVKPSQTLSLTCTVSGGSISTSGMGVGWIRQHPGKGLEWIGHIWWDDDKRYNPALKSRVTISVDTSKNQFSLKLSSVTAADTAVYYCARMELWSYYFDYWGQGTLVTVSSLEGKPIPNPLLGLDSTGSGEDLKNVFPPEVAVFEPSKAEIAHTQKATLVCLATGFYPDHVELSWWVNGKEVHSGVCTDPQPLKEQPALNDSRYCLSSRLRVSATFWQNPRNHFRCQVQFYGLSENDEWTQDRAKPVTQIVSAEAWGRADCGITSASYHQGVLSATILYEILLGKATLYAVLVSALVLMAMVKRKDSRGRAKRSGSGATNFSLLKQAGDVEENPGPTSMALPVTALLLPLALLLHAARPDIVMTQSHKFMSTSVGDRVSVTCKASQNVGNNVAWYQQKPGQSPKVLIYSASYRYSGVPDRFTGSGSGTDFTLTISNVQSEDLAEYFCQQYNTYPFTFGSGTKLEIKGGGGSGGGGSGGGGSEVQLEESGGGLVQPGGSMKLSCVASGFTFSNYWMNWVRQSPEKGLEWVAEIRFKSHNYATHFAESVKGRFTISRDDSKSSVYLQMNNLRAEDTGIYYCTRRIGNSDYDWWYFDVWGAGTSVTVSSASTREQKLISEEDGSGIQNPDPAVYQLRDSKSSDKSVCLFTDFDSQTNVSQSKDSDVYITDKCVLDMRSMDFKSNSAVAWSNKSDFACANAFNNSIIPEDTFFPSSDVPCDVKLVEKSFETDTNLNFQNLSVIGFRILLLKVAGFNLLMTLRLWSSRAKRSGSGVKQTLNFDLLKLAGDVESNPGPSRGHMTEYKPTVRLATRDDVPRAVRTLAAAFADYPATRHTVDPDRHIERVTELQELFLTRVGLDIGKVWVADDGAAVAVWTTPESVEAGAVFAEIGPRMAELSGSRLAAQQQMEGLLAPHRPKEPAWFLATVGVSPDHQGKGLGSAVVLPGVEAAERAGVPAFLETSAPRNLPFYERLGFTVTADVEVPEGPRTWCMTRKPGA	–	–	–	(+)
030217-J05 (protein) MALPVTALLLPLALLLHAARPDEIVLTQSPATLSLSPGERATLSCSASSSVSYMHWYQQKPGQAPRLLIYDTSKLASGIPARFSGSGSGTDFTLTISSLEPEDVAVYYCFQGSVYPFTFGQGTKLEIKRGGGGSGGGGSGGGGSQVQLQESGPGLVKPSQTLSLTCTVSGGSISTSGMGVGWIRQHPGKGLEWIGHIWWDDDKRYNPALKSRVTISVDTSKNQFSLKLSSVTAADTAVYYCARMELWSYYFDYWGQGTLVTVSSLEGKPIPNPLLGLDSTGSGEDLKNVFPPEVAVFEPSKAEIAHTQKATLVCLATGFYPDHVELSWWVNGKEVHSGVCTDPQPLKEQPALNDSRYCLSSRLRVSATFWQNPRNHFRCQVQFYGLSENDEWTQDRAKPVTQIVSAEAWGRADCGITSASYHQGVLSATILYEILLGKATLYAVLVSALVLMAMVKRKDSRGRAKRSGSGATNFSLLKQAGDVEENPGPTSMALPVTALLLPLALLLHAARPDIQMTQSPASLSASVGETVTIICRASVNIYSYLAWYQQKQGKSPQLLVYNAKILAEGVPSRFSGSGSGTQFSLKINSLQPEDFGSYYCQHHYGTFTFGSGTKLEIKRGGGGSGGGGSGGGGSQVQLKESGPGLVAPSQSLSITCTISGFSLTSYGVHWVRQPPGKGLEWLVVIWSDGSTTYNSALKSRLSISKDNSKSQVFLKMNSLQTDDTAIYYCASHYGSTLAFASWGHGTLVTVSAATREQKLISEEDGSGIQNPDPAVYQLRDSKSSDKSVCLFTDFDSQTNVSQSKDSDVYITDKCVLDMRSMDFKSNSAVAWSNKSDFACANAFNNSIIPEDTFFPSSDVPCDVKLVEKSFETDTNLNFQNLSVIGFRILLLKVAGFNLLMTLRLWSSRAKRSGSGVKQTLNFDLLKLAGDVESNPGPSRGHMTEYKPTVRLATRDDVPRAVRTLAAAFADYPATRHTVDPDRHIERVTELQELFLTRVGLDIGKVWVADDGAAVAVWTTPESVEAGAVFAEIGPRMAELSGSRLAAQQQMEGLLAPHRPKEPAWFLATVGVSPDHQGKGLGSAVVLPGVEAAERAGVPAFLETSAPRNLPFYERLGFTVTADVEVPEGPRTWCMTRKPGA	–	RAJI (2+), NALM6	–	(+/−)
030217-G04 (protein) MALPVTALLLPLALLLHAARPDEIVLTQSPATLSLSPGERATLSCSASSSVSYMHWYQQKPGQAPRLLIYDTSKLASGIPARFSGSGSGTDFTLTISSLEPEDVAVYYCFQGSVYPFTFGQGTKLEIKRGGGGSGGGGSGGGGSQVQLQESGPGLVKPSQTLSLTCTVSGGSISTSGMGVGWIRQHPGKGLEWIGHIWWDDDKRYNPALKSRVTISVDTSKNQFSLKLSSVTAADTAVYYCARMELWSYYFDYWGQGTLVTVSSLEGKPIPNPLLGLDSTGSGEDLKNVFPPEVAVFEPSKAEIAHTQKATLVCLATGFYPDHVELSWWVNGKEVHSGVCTDPQPLKEQPALNDSRYCLSSRLRVSATFWQNPRNHFRCQVQFYGLSENDEWTQDRAKPVTQIVSAEAWGRADCGITSASYHQGVLSATILYEILLGKATLYAVLVSALVLMAMVKRKDSRGRAKRSGSGATNFSLLKQAGDVEENPGPTSMALPVTALLLPLALLLHAARPDDIVMTQSPDSLTVSLGERTTINCKSSQSVLDSSKNKNSLAWYQQKPGQPPKLLLSWASTRESGIPDRFSGSGSGTDFTLTIDSLQPEDSATYYCQQSAHFPITFGQGTRLEIKGGGGSGGGGSGGGGSQVQLVQSGAEVKKPGASVKVSCKASGYTFTNYGMNWVKQAPGQGLKWMGWINTYTGEPTYADDFKGRVTMTSDTSTSTAYLELHNLRSDDTAVYYCARWSWSDGYYVYFDYWGQGTTVTVSSTREQKLISEEDGSGIQNPDPAVYQLRDSKSSDKSVCLFTDFDSQTNVSQSKDSDVYITDKCVLDMRSMDFKSNSAVAWSNKSDFACANAFNNSIIPEDTFFPSSDVPCDVKLVEKSFETDTNLNFQNLSVIGFRILLLKVAGFNLLMTLRLWSSRAKRSGSGVKQTLNFDLLKLAGDVESNPGPSRGHMTEYKPTVRLATRDDVPRAVRTLAAAFADYPATRHTVDPDRHIERVTELQELFLTRVGLDIGKVWVADDGAAVAVWTTPESVEAGAVFAEIGPRMAELSGSRLAAQQQMEGLLAPHRPKEPAWFLATVGVSPDHQGKGLGSAVVLPGVEAAERAGVPAFLETSAPRNLPFYERLGFTVTADVEVPEGPRTWCMTRKPGA	–	RAJI (+), NALM6 (+)	–	RAJI (+), NALM6 (+)
041216 G04 (protein, Synthetic polynucleotide encoding a SIR) MALPVTALLLPLALLLHAARPDEIVLTQSPATLSLSPGERATLSCSASSSVSYMHWYQQKPGQAPRLLIYDTSKLASGIPARFSGSGSGTDFTLTISSLEPEDVAVYYCFQGSVYPFTFGQGTKLEIKRGGGGSGGGGSGGGGSQVQLQESGPGLVKPSQTLSLTCTVSGGSISTSGMGVGWIRQHPGKGLEWIGHIWWDDDKRYNPALKSRVTISVDTSKNQFSLKLSSVTAADTAVYYCARMELWSYYFDYWGQGTLVTVSSLEGKPIPNPLLGLDSTGSGEDLKNVFPPEVAVFEPSKAEIAHTQKATLVCLATGFYPDHVELSWWVNGKEVHSGVCTDPQPLKEQPALNDSRYCLSSRLRVSATFWQNPRNHFRCQVQFYGLSENDEWTQDRAKPVTQIVSAEAWGRADCGITSASYHQGVLSATILYEILLGKATLYAVLVSALVLMAMVKRKDSRGRAKRSGSGATNFSLLKQAGDVEENPGPTSMDWIWRILFLVGAATGAHSFEVQLVESGGGLVQAGGSLRLSCAASGSIFSGNVMGWYRRQAPGKEREWVAAIASGGSIYYRDSVKGRFTISRDNAKNTVYLQMNSLKPEDTAVYYCNSHPPTLPYWGLGTQVTVSSTREQKLISEEDGSGIQNPDPAVYQLRDSKSSDKSVCLFTDFDSQTNVSQSKDSDVYITDKCVLDMRSMDFKSNSAVAWSNKSDFACANAFNNSIIPEDTFFPSSDVPCDVKLVEKSFETDTNLNFQNLSVIGFRILLLKVAGFNLLMTLRLWSSRAKRSGSGVKQTLNFDLLKLAGDVESNPGPSRGHMTEYKPTVRLATRDDVPRAVRTLAAAFADYPATRHTVDPDRHIERVTELQELFLTRVGLDIGKVWVADDGAAVAVWTTPESVEAGAVFAEIGPRMAELSGSRLAAQQQMEGLLAPHRPKEPAWFLATVGVSPDHQGKGLGSAVVLPGVEAAERAGVPAFLETSAPRNLPFYERLGFTVTADVEVPEGPRTWCMTRKPGA	–	RAJI (+/−)	–	–
